Earlier results, collected in article PMC4626678.

Molecular target: Trypsin (Bos taurus) (UniProt P00760)
Sequence (P00760 149-246): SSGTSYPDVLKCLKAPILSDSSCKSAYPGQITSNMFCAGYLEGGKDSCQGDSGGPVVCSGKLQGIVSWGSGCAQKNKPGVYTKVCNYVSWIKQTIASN

Chain of ShPI-1 (P31713 whole entry): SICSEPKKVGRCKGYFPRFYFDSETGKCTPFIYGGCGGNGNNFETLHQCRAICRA

ShPI-1 (from UniProt P31713)
Ki: 110 pM
